In patent US11278600B2, “Human alpha-galactosidase variants” (Codexis, Inc., priority 2014, dated 2022):

What was measured:
Type in all cases: biochemical
[1] = HTP-analysis of yeast culture supernatants, no challenge (MUGal hydrolysis); settings: activity of the variant/activity of Rd4BB (SEQ ID NO: 15)
Outline: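 GLA variants expressed in yeast INVSc1, secreted into SD-Ura broth over 66-84 h at 30° C; clarified supernatants tested without challenge. Supernatant mixed with McIlvaine buffer pH 4.8 and 2 mM MUGal (citrate/KCl, pH 4.6), 37° C for 30-180 min, carbonate-quenched, fluorescence Ex 355/Em 448 nm.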

[2] = HTP-analysis of supernatants pretreated with acid (MUGal hydrolysis); settings: activity of the variant/activity of Rd4BB (SEQ ID NO: 15); challenge at pH 3.7
Outline: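 MUGal hydrolysis was tracked by fluorescence (Ex 355 nm, Em 448 nm) after a 30-180 min reaction at 37° C. in pH 4.8 McIlvaine/citrate buffer, stopped with 1 M sodium carbonate. Beforehand, yeast (INVSc1) culture supernatants carrying GLA variants were held 1-3 h at 37° C. in acidic McIlvaine buffer, pH 3.3-4.3.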

[3] = HTP-analysis of supernatants pretreated with base (MUGal hydrolysis); settings: activity of the variant/activity of Rd4BB (SEQ ID NO: 15); challenge at pH 9.65
Outline: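 GLA variants were secreted by transformed INVSc1 yeast grown 66-84 h at 30° C. Supernatants were exposed to neutral-to-basic buffers (pH 7.0-9.7) at 37° C for 1-18 h, then assayed with MUGal in acidic citrate/McIlvaine buffer, with fluorescence read after quenching.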

Molecule	Relative Activity of GLA Variants After No Challenge (NC) [1]	Relative Activity of GLA Variants After Challenge at pH 3.7 [2]	Relative Activity of GLA Variants After Challenge at pH 9.65 [3]
470 (protein, Synthetic Polypeptide sequence of Variant No. 470 of mature Human GLA) LDNGLARTPTMGWLHWERFMCNLDCQEEPDSCISEKLFMEMAERMVSEGWKDAGYEYLCIDDCWMAPQRDSEGRLQADPQRFPHGIRQLANYVHSKGLKLGIYADVGNKTCAGFPGSFGYYDIDAQTFADWGVDLLKFDGCYCDSLENLADGYKHMSLALNRTGRSIVYSCEWPLYMWPFQKPNYTEIRQYCNHWRNFADIDDSWKSIKSILDWTSRNQERIVDVAGPGGWNDPDMLVIGNFGLSWDQQVTQMALWAIMAAPLFMSNDLRHISPQAKALLQDKDVIAINQDPLGKQGYQLRKGDNFEVWERPLSGDAWAVAIINRQEIGGPRSYTIPVASLGKGVACNPACFITQLLPVKRQLGFYNWTSRLKSHINPTGTVLLQLENTMQRSLKDLL	+ (0.5 to 1.5 relative activity over Rd4BB (SEQ ID NO: 15))	++ (>1.5 to 2.5 relative activity over Rd4BB (SEQ ID NO: 15))	+ (0.5 to 1.5 relative activity over Rd4BB (SEQ ID NO: 15))
472 (protein, Synthetic Polypeptide sequence of Variant No. 472 of mature Human GLA) LDNGLARTPTMGWLHWERFMCNLDCQEEPDSCISEKLFMEMAERMVSEGWKDAGYEYLCIDDCWMAPQRDSEGRLQADPQRFPHGIRQLANYVHSKGLKLGIYADVGNKTCAGFPGSFGYYDIDAQTFADWGVDLLKFDGCYCDSLENLADGYKHMSLALNRTGRSIVYSCEWPLYMWPFQKPNYTEIRQYCNHWRNFADIDDSWKSIKSILDWTSRNQERIVDVAGPGGWNDPDMLVIGNFGLSWDQQVTQMALWAIMAAPLFMSNDLRHISPQAKALLQDKDVIAINQDPLGKQGYQLRKGDNFEVWERPLSGDAWAVAIINRQEIGGPRSYTIPVASLGKGVACNPACFITQLLPVKRQLGFYNWTSRLKSHINPTGTVLLQLENTMQKSLKDLL	+ (0.5 to 1.5 relative activity over Rd4BB (SEQ ID NO: 15))	+ (0.5 to 1.5 relative activity over Rd4BB (SEQ ID NO: 15))	+ (0.5 to 1.5 relative activity over Rd4BB (SEQ ID NO: 15))
473 (protein, Synthetic Polypeptide sequence of Variant No. 473 of mature Human GLA) LDNGLARTPTMGWLHWERFMCNLDCQEEPDSCISEKLFMEMAERMVSEGWKDAGYEYLCIDDCWMAPQRDSEGRLQADPQRFPHGIRQLANYVHSKGLKLGIYADVGNKTCAGFPGSFGYYDIDAQTFADWGVDLLKFDGCYCDSLENLADGYKHMSLALNRTGRSIVYSCEWPLYMWPFQKPNYTEIRQYCNHWRNFADIDDSWKSIKSILDWTSRNQERIVDVAGPGGWNDPDMLVIGNFGLSWDQQVTQMALWAIMAAPLFMSNDLRHISPQAKALLQDKDVIAINQDPLGKQGYQLRKGDNFEVWERPLSGDAWAVAIINRQEIGGPRSYTIPVASLGKGVACNPACFITQLLPVKRQLGFYNWTSRLKSHINPTGTVLLQLENTMQLSLKDLL	+ (0.5 to 1.5 relative activity over Rd4BB (SEQ ID NO: 15))	+ (0.5 to 1.5 relative activity over Rd4BB (SEQ ID NO: 15))	+ (0.5 to 1.5 relative activity over Rd4BB (SEQ ID NO: 15))
471 (protein, Synthetic Polypeptide sequence of Variant No. 471 of mature Human GLA) LDNGLARTPTMGWLHWERFMCNLDCQEEPDSCISEKLFMEMAERMVSEGWKDAGYEYLCIDDCWMAPQRDSEGRLQADPQRFPHGIRQLANYVHSKGLKLGIYADVGNKTCAGFPGSFGYYDIDAQTFADWGVDLLKFDGCYCDSLENLADGYKHMSLALNRTGRSIVYSCEWPLYMWPFQKPNYTEIRQYCNHWRNFADIDDSWKSIKSILDWTSRNQERIVDVAGPGGWNDPDMLVIGNFGLSWDQQVTQMALWAIMAAPLFMSNDLRHISPQAKALLQDKDVIAINQDPLGKQGYQLRKGDNFEVWERPLSGDAWAVAIINRQEIGGPRSYTIPVASLGKGVACNPACFITQLLPVKRQLGFYNWTSRLKSHINPTGTVLLQLENWMQMSLKDLL	+ (0.5 to 1.5 relative activity over Rd4BB (SEQ ID NO: 15))	+ (0.5 to 1.5 relative activity over Rd4BB (SEQ ID NO: 15))	+ (0.5 to 1.5 relative activity over Rd4BB (SEQ ID NO: 15))
474 (protein, Synthetic Polypeptide sequence of Variant No. 474 of mature Human GLA) LDNGLARTPTMGWLHWERFMCNLDCQEEPDSCISEKLFMEMAERMVSEGWKDAGYEYLCIDDCWMAPQRDSEGRLQADPQRFPHGIRQLANYVHSKGLKLGIYADVGNKTCAGFPGSFGYYDIDAQTFADWGVDLLKFDGCYCDSLENLADGYKHMSLALNRTGRSIVYSCEWPLYMWPFQKPNYTEIRQYCNHWRNFADIDDSWKSIKSILDWTSRNQERIVDVAGPGGWNDPDMLVIGNFGLSWDQQVTQMALWAIMAAPLFMSNDLRHISPQAKALLQDKDVIAINQDPLGKQGYQLRKGDNFEVWERPLSGDAWAVAIINRQEIGGPRSYTIPVASLGKGVACNPACFITQLLPVKRQLGFYNWTSRLKSHINPTGTVLLQFENTMQMSLKDLL	+ (0.5 to 1.5 relative activity over Rd4BB (SEQ ID NO: 15))	++ (>1.5 to 2.5 relative activity over Rd4BB (SEQ ID NO: 15))	+ (0.5 to 1.5 relative activity over Rd4BB (SEQ ID NO: 15))
475 (protein, Synthetic Polypeptide sequence of Variant No. 475 of mature Human GLA) LDNGLARTPTMGWLHWERFMCNLDCQEEPDSCISEKLFMEMAERMVSEGWKDAGYEYLCIDDCWMAPQRDSEGRLQADPQRFPHGIRQLANYVHSKGLKLGIYADVGNKTCAGFPGSFGYYDIDAQTFADWGVDLLKFDGCYCDSLENLADGYKHMSLALNRTGRSIVYSCEWPLYMWPFQKPNYTEIRQYCNHWRNFADIDDSWKSIKSILDWTSFNQERIVDVAGPGGWNDPDMLVIGNFGLSWNQQVTQMALWAIMAAPLFMSNDLRHISPQAKALLQDKDVIAINQDPLGKQGYQLRQGDNFEVWERPLSGLAWAVAMINRQEIGGPRSYTIAVASLGKGVACNPACFITQLLPVKRKLGFYEWTSRLRSHINPTGTVLLQLENDMQMSLKDLL	+ (0.5 to 1.5 relative activity over Rd4BB (SEQ ID NO: 15))	+ (0.5 to 1.5 relative activity over Rd4BB (SEQ ID NO: 15))	+ (0.5 to 1.5 relative activity over Rd4BB (SEQ ID NO: 15))
477 (protein, Synthetic Polypeptide sequence of Variant No. 477 of mature Human GLA) LDNGLARTPTMGWLHWERFMCNLDCQEEPDSCISEKLFMEMAERMVSEGWKDAGYEYLCIDDCWMAPQRDSEGRLQADPQRFPHGIRQLANYVHSKGLKLGIYADVGNKTCAGFPGSFGYYDIDAQTFADWGVDLLKFDGCYCDSLENLADGYKHMSLALNRTGRSIVYSCEWPLYMWPFQKPNYTEIRQYCNHWRNFADIDDSWKSIKSILDWTSFNQERIVDVAGPGGWNDPDMLVIGNFGLSWNQQVTQMALWAIMAAPLFMSNDLRHISPQAKALLQDKDVIAINQDPLGKQGYQLRQGDNFEVWERPLSGLAWAVAMINRQEIGGPRSYTIAVASLGKGVACNPACFITQLLPVKRKLGFYEWTSRLRSHINPTGTVLWQLENTMQMSLKDLL	+ (0.5 to 1.5 relative activity over Rd4BB (SEQ ID NO: 15))	− (<0.5 relative activity over Rd4BB (SEQ ID NO: 15))	+ (0.5 to 1.5 relative activity over Rd4BB (SEQ ID NO: 15))
476 (protein, Synthetic Polypeptide sequence of Variant No. 476 of mature Human GLA) LDNGLARTPTMGWLHWERFMCNLDCQEEPDSCISEKLFMEMAERMVSEGWKDAGYEYLCIDDCWMAPQRDSEGRLQADPQRFPHGIRQLANYVHSKGLKLGIYADVGNKTCAGFPGSFGYYDIDAQTFADWGVDLLKFDGCYCDSLENLADGYKHMSLALNRTGRSIVYSCEWPLYMWPFQKPNYTEIRQYCNHWRNFADIDDSWKSIKSILDWTSFNQERIVDVAGPGGWNDPDMLVIGNFGLSWNQQVTQMALWAIMAAPLFMSNDLRHISPQAKALLQDKDVIAINQDPLGKQGYQLRQGDNFEVWERPLSGLAWAVAMINRQEIGGPRSYTIAVASLGKGVACNPACFITQLLPVKRKLGFYEWTSRLRSHINPTGTVLLQLENTEQMSLKDLL	+ (0.5 to 1.5 relative activity over Rd4BB (SEQ ID NO: 15))	+ (0.5 to 1.5 relative activity over Rd4BB (SEQ ID NO: 15))	+ (0.5 to 1.5 relative activity over Rd4BB (SEQ ID NO: 15))
